The target of data set [1] is Toxoplasma gondii pyruvate kinase 1, N-terminally truncated (Ile39 to Glu531) (Toxoplasma gondii). Kind of data set: SEC; Superdex 200 26/60 in 10 mM HEPES pH 7.5, 500 mM NaCl; oligomeric state from the elution volume (164 mL full length, 168 mL truncated); profile not shown. Background: SEC sorts molecules by how far they enter the pores of the column.
The target is the same in data set [2]. The data set can be described thus: crystal structure; truncated TgPK1 crystallised with K+ and Mg2+; 15% PEG3350, 100 mM succinic acid pH 7.0; the asymmetric unit is a tetramer.
The target in data set [3] is T1, TgPK1 (T. gondii pyruvate kinase 1), full length (Toxoplasma gondii, UniProt Q969A2).
T1 construct: gene pk; full length Met1-Glu531, N-terminal His6 tag and TEV site, tag kept; synthetic gene, expressed in E. coli; homotetramer
T1 sequence (Q969A2 1-531): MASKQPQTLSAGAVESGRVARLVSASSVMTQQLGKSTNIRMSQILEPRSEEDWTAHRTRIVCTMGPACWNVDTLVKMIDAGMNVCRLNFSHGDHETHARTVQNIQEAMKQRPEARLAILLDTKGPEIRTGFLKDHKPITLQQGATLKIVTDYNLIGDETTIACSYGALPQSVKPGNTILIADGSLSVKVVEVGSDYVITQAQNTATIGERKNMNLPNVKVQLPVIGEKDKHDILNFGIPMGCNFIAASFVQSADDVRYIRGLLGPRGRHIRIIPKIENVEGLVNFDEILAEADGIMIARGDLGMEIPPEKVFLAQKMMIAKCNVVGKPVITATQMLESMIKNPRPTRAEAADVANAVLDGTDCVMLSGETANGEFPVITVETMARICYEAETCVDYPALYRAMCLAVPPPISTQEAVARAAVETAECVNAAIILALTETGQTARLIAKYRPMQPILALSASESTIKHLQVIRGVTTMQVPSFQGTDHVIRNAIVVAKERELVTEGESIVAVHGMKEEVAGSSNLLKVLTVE
Kind of data set: lactate dehydrogenase-coupled NADH assay, Hill fit. The data set is classed as biochemical. To be noted: allosteric activator; 1 mM effector, PEP varied 0.01 to 10 mM, 2 mM ADP, 50 mM KCl, 20 mM MgCl2, pH 7.5.

For data set [4], the target named is Toxoplasma gondii pyruvate kinase 1, full length (Met1 to Glu531) (Toxoplasma gondii) (UniProt Q27006). Kind of data set: SEC; Superdex 200 26/60 in 10 mM HEPES pH 7.5, 500 mM NaCl; oligomeric state from the elution volume (164 mL full length, 168 mL truncated); profile not shown.
For data set [5] the target is unchanged. The data set can be described thus: crystal structure; full TgPK1 crystallised without substrates, effectors or added ions; 19% PEG3350, 100 mM BisTris pH 6.0, 200 mM NH4I; the asymmetric unit is a tetramer.
Substrate in data set [6]: C=C(OP(=O)(O)O)C(=O)O
Kind of data set: lactate dehydrogenase-coupled NADH assay, Hill fit. The format is biochemical, Toxoplasma gondii. To be noted: no sugar effector, cooperative (Hill), 2 mM ADP, 50 mM KCl, 20 mM MgCl2, 50 mM HEPES pH 7.5, room temperature. The source says: lactate dehydrogenase-coupled NADH assay, Hill fit on TgPK1 (T. gondii pyruvate kinase 1), full length

Consider four molecules from paper PMC2939071, “The Crystal Structure of Toxoplasma gondii Pyruvate Kinase 1” (PLoS ONE, 2010).

As a reminder, the stoichiometry N is a count of units in the complex or per binding partner. As to “Toxoplasma gondii pyruvate kinase 1, N-terminally truncated (Ile39 to Glu531) (domain or fragment)”, the stoichiometry N in data set [1] and in data set [2] was 4 in each case.

Take `O=P(O)(O)OC[C@H]1OC(O)[C@H](O)[C@@H](O)[C@@H]1O` (stereo partly shown) [G6P, glucose-6-phosphate]: the “lactate dehydrogenase-coupled NADH assay, Hill fit” value in data set [3] is given as “G6P showed a classic allosteric activation with a six-fold reduction in the apparent Km”. “Toxoplasma gondii pyruvate kinase 1, full length (Met1 to Glu531) (from UniProt Q27006 1-509) (enzyme)”: the stoichiometry N in data set [4] and in data set [5] was 4 each time.

B1: TgPK1 (T. gondii pyruvate kinase 1), full length (Toxoplasma gondii) (protein)
chain: MASKQPQTLSAGAVESGRVARLVSASSVMTQQLGKSTNIRMSQILEPRSEEDWTAHRTRIVCTMGPACWNVDTLVKMIDAGMNVCRLNFSHGDHETHARTVQNIQEAMKQRPEARLAILLDTKGPEIRTGFLKDHKPITLQQGATLKIVTDYNLIGDETTIACSYGALPQSVKPGNTILIADGSLSVKVVEVGSDYVITQAQNTATIGERKNMNLPNVKVQLPVIGEKDKHDILNFGIPMGCNFIAASFVQSADDVRYIRGLLGPRGRHIRIIPKIENVEGLVNFDEILAEADGIMIARGDLGMEIPPEKVFLAQKMMIAKCNVVGKPVITATQMLESMIKNPRPTRAEAADVANAVLDGTDCVMLSGETANGEFPVITVETMARICYEAETCVDYPALYRAMCLAVPPPISTQEAVARAAVETAECVNAAIILALTETGQTARLIAKYRPMQPILALSASESTIKHLQVIRGVTTMQVPSFQGTDHVIRNAIVVAKERELVTEGESIVAVHGMKEEVAGSSNLLKVLTVE
notes: full length Met1-Glu531, N-terminal His6 tag and TEV site, tag kept; synthetic gene, expressed in E. coli; homotetramer
For orientation: Km means the substrate concentration at which the rate is half of its maximum. As usually defined, the Vmax is the rate approached at saturating substrate. B1: in data set [6], the Km came to 750 ± 51 µM and the Vmax came out at 42 µM/min.
